Experimental data taken from patent publication US20150335768A1 (CURATORS OF THE UNIVERSITY OF MISSOURI, published 2015).
Ends that are not written are not given here.

Experiments:
[1] = target: T1, recombinant extracellular domain of human ErbB-2 tagged with the FLAG epitope (human, UniProt P04626 23-652); assay: quenching of intrinsic tryptophan fluorescence of soluble ErbB-2-ECD titrated with peptide, 1:1 model, global fit of three protein concentrations
T1 construct: extracellular domain; Expressed in HEK-293 cells, purified on anti-FLAG M2; Biotinylated for biopanning; also called ErbB-2-ECD; ErbB2-ECD
Procedure: The titrations were performed at 25° C. with varying amounts of peptide added to a fixed ErbB-2-ECD concentration (200-600 nM) in 2 ml of phosphate buffered saline (pH=7.4). Each measurement was collected for 5-20 sec after 1-2 min pre-equilibration. The excitation shutter remained closed during pre-equilibration of the sample and was opened only during data acquisition in order to minimize photobleaching of the sample. The fluorescence measurements were corrected for dilutions and photobleaching of ErbB-2-ECD. Values reported are an average of three independent measurements. […] The fitting procedure was performed using Origin (Microcal Software Inc).
Intrinsic tryptophan fluorescence of the protein was monitored as a function of peptide concentration. […] In the analysis, the inventors assumed a model with the stoichiometric ratio of protein to peptide equal to 1:1. The data were collected at 2 μM, 4 μM and 6 μM concentrations of the protein.

[2] = target: T2, bovine serum albumin (bovine, UniProt P02769 25-607); assay: immunoblot (dot blot) on nitrocellulose, streptavidin-alkaline phosphatase
T2 construct: Control protein spotted on nitrocellulose; also called BSA
T2 sequence (P02769 25-607 limits assumed): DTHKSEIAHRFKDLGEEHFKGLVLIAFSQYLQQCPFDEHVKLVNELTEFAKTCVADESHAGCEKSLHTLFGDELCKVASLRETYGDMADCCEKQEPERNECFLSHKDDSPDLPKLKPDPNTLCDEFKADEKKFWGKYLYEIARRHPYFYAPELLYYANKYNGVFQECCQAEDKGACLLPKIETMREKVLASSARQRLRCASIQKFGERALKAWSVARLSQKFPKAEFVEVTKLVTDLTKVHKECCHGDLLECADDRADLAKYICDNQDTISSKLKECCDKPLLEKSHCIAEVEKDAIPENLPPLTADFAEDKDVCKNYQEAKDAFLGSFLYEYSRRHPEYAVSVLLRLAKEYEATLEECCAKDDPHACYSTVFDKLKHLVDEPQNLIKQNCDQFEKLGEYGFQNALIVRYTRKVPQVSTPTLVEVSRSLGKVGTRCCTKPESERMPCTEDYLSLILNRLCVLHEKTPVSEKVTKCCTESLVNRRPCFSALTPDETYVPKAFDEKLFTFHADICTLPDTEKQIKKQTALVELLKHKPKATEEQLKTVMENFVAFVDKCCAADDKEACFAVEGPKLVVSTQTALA
Procedure: (§1) After washing three times with PBS, the membrane was incubated with 100 μM biotinylated peptide for 2 hrs at RT.

[3] = target: T3, bovine asialofetuin (bovine, UniProt P12763 19-359, desialylated glycoprotein); assay: as above
T3 construct: Control protein spotted on nitrocellulose; also called ASF; AF
T3 sequence (looked up): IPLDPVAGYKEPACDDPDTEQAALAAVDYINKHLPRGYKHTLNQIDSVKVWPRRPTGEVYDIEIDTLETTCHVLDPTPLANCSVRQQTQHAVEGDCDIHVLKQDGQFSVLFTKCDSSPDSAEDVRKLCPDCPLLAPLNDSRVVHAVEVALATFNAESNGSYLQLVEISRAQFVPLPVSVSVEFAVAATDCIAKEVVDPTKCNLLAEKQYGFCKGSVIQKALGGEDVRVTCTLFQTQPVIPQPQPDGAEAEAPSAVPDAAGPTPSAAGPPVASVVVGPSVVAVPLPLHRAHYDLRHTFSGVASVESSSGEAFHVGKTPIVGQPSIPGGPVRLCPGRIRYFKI
Procedure: as §1

[4] = target: T1, recombinant extracellular domain of …; assay: four rounds of phage display affinity selection on biotinylated ErbB-2-ECD held on streptavidin plates
Procedure: Biotinylated antigen was incubated with streptavidin coated plates for 2 hours at 4° C. In first and second round of selection 10 μg of biotinylated antigen per plate was added, in third round amount of antigen was decreased to 1 μg, and for fourth round of selection 0.1 μg of antigen was used. Unoccupied biotin-binding sites were blocked with 0.1 mM biotin. Phage was incubated with antigen for 4 hrs at RT. Plates were washed 10 times with TPBS to remove unbound phage. Bound phage was eluted with elution buffer (0.1 M HCl, pH is adjusted to 2.2 with glycine, 1 mg/ml BSA, 0.1 mg/ml phenol red) at RT during 10 min. […] After each round, except the last, the eluate of the bound phage was propagated and used as input for the next round. Individual clones were characterized by DNA sequencing after the fourth round of selection.
A random 6-amino acid peptide bacteriophage display library was affinity selected against the ErbB-2-ECD to identify novel peptide-ligands.

B1: synthetic p6.1 peptide KCCYSL (peptide)
peptide: KCCYSL
modifications: not fully specified (bridges); also: present as oxidized and reduced monomer
notes: Chemically synthesized, not biotinylated; used in the fluorescence titration
Kd [1]: 30.2 µM

B2: biotinylated synthetic p6.1 peptide (peptide)
peptide: KCCYSL
modifications: cysteine pairing not given here; also: biotin label, position not given here
notes: Biotinylated analog of KCCYSL used in immunoblot, ELISA and cell staining; also called biotinylated p6.1
binding result [2]: no binding | binding result [3]: no binding

B3: phage-displayed p6.3 peptide WYSWLL (peptide)
chain: WYSWLL
notes: Only seen as phage clone; not synthesized; not shown: minor coat protein pIII of the fUSE5 (M13/fd type) bacteriophage vector; peptide inserted near the N-terminus of mature
binding result [4]: binds

B4: phage-displayed p6.2 peptide WYAWML (peptide)
chain: WYAWML
notes: as for B3
binding result [4]: binds

B5: phage-displayed p6.1 peptide KCCYSL (peptide)
chain: KCCYSL
modifications: also: C2-C3 disulfide in the oxidized monomer fraction
notes: Insert of the phage clones selected from the 6-mer library F3-6; not shown: minor coat protein pIII of the fUSE5 (M13/fd type) bacteriophage vector; peptide inserted near the N-terminus of mature
binding result [4]: binds
